Biological target: GST-tagged A. thaliana Rpn10 (AtRpn10) vWA domain (Arabidopsis thaliana) (UniProt P55034)
Assay: SPR

GST-tagged A. thaliana Rpn10 (AtRpn10) vWA domain (Arabidopsis thaliana), sequence (P55034 2-193): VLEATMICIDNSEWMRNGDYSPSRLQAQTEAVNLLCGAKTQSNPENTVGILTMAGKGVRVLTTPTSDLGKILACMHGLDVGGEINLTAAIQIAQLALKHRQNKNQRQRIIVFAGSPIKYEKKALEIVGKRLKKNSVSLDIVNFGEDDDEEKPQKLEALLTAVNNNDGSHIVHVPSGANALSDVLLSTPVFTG

“V-shape-GSGS-C-ter peptide (fused V-shape and C-ter peptide of SAP05, linked by the GSGS linker)” gave a Kd of 34.3 µM.

From paper doi:10.1101/2023.08.24.554544
